Data on 62 sequences can be found in the supplement of paper PMC7877785.

A short description of the data set: self-splicing fitness, log relative to wild type (ln ratio); higher = more splicing; Tetrahymena group I intron in knt gene, E. coli kanamycin selection, DiMSum; sequences stand for … in CUCUCU…GGAGGGAAAAGUUAUCAGGCAUGCACCUGGUAGCUAGUCUUUAAACCAAUAGAUUGCAUCGGUUUAAAAGGCAAGACCGUCAAAUUGCGGGAAAGGGGUCAACAGCCGUUCAGUACCAAGUCUCAGGGGAAACUUUGAGAUGGCCUUGCAAAGGGUAUGGUAAUAAGCUGACGGACAUGGUCCUAACCACGCAGCCAAGUCCUAAGUCAACAGAUCUUCUGUUGAUAUGGAUGCAGUUCACAGACUAAAUGUCGGUCGGGGAAGAUGUAUUCUUCUCAUAAGAUAUAGUCGGACCUCUCCUUAAUGGGAGCUAGCGGAUGAAGUGAUGCAACACUGGAGCCGCUGGGAACUAAUUUGUAUGCGAAAGUAUAUUGAUUAGUUUUGGAGUACUCGUGGUCG
Summed up:
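A randomised library covering all eight P1ex-region intron nucleotides was built with the intron in the knt kanamycin-resistance gene on pET-22b(+) and held in E. coli BL21(DE3). Cells were grown overnight at 37°C or 30°C on LB agar, with or without 25 μg/mL kanamycin, plus 100 μg/mL carbenicillin, 50 μM IPTG and 0.2% rhamnose, and pooled colonies were amplicon-sequenced on an Illumina HiSeq 2500. DiMSum fitness is the error-weighted combination of wild-type-normalised replicate fold changes, kanamycin versus none.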

± gives the uncertainty stated by the source.

In the case of GAAAAGCAAUAUUACGAGGG, where the note is “37 °C”, the “self-splicing fitness (ln)” value is -1.77 ± 0.25.
Turning to UGAUAGCAAUAUUACGGUCG, the “self-splicing fitness (ln)” value is, setting by setting: (30 °C) -0.332 ± 0.098; (37 °C) -0.477 ± 0.1.
As for CUAAAGCAAUAUUACGAGUG, the “self-splicing fitness (ln)” value by setting is: (30 °C) 0.178 ± 0.047; (37 °C) 0.456 ± 0.077.
GGAGAGCAAUAUUACGGACG: the “self-splicing fitness (ln)” value (37 °C) was -1.27 ± 0.31.
Take CACUAGCAAUAUUACGCCUU: the “self-splicing fitness (ln)” value was -1.4 ± 0.27 (30 °C) and -1.19 ± 0.16 (37 °C).
Consider CCUCAGCAAUAUUACGUCGU, for which the “self-splicing fitness (ln)” value is -3.24 ± 0.15 (30 °C) and -2.82 ± 0.24 (37 °C).
Taken in the same sequence, the figures for GUUGAGCAAUAUUACGCGAU were -3.79 ± 0.3 and -2.47 ± 0.34.
Taken in the same sequence, the figures for GGCUAGCAAUAUUACGCAUG were -1.11 ± 0.11 and -1.04 ± 0.11.
As to UUAGAGCAAUAUUACGUGAG, the “self-splicing fitness (ln)” value is -1.88 ± 0.083 (30 °C) and -0.875 ± 0.13 (37 °C).
On the same counts, the results for AGAUAGCAAUAUUACGAUGU are -0.932 ± 0.079 and -0.112 ± 0.086.
As to UUAUAGCAAUAUUACGCUCC, the “self-splicing fitness (ln)” value is -2.11 ± 0.24 (30 °C) and 0.501 ± 0.45 (37 °C).
Consider CUACAGCAAUAUUACGGCUA, for which the “self-splicing fitness (ln)” value was -3.25 ± 0.25 (30 °C) and -3.02 ± 0.22 (37 °C).
Regarding GACGAGCAAUAUUACGCCUU, the “self-splicing fitness (ln)” value by setting is: (30 °C) -3.3 ± 0.4; (37 °C) -1.48 ± 0.24.
CACGAGCAAUAUUACGGUCU: the “self-splicing fitness (ln)” value is, setting by setting: (30 °C) -3.44 ± 0.19; (37 °C) -1.73 ± 0.16.
Regarding UACAAGCAAUAUUACGUUCC, the “self-splicing fitness (ln)” value is -3.65 ± 0.28 (30 °C) and -2.58 ± 0.25 (37 °C).
For UUAGAGCAAUAUUACGCGAG, the “self-splicing fitness (ln)” value was -0.443 ± 0.084 (30 °C) and -0.0681 ± 0.094 (37 °C).
As for CAAUAGCAAUAUUACGGAAA, the “self-splicing fitness (ln)” value was -3.49 ± 0.19 (30 °C) and -2.83 ± 0.32 (37 °C).
For the sequence GGCUAGCAAUAUUACGAGCG, the “self-splicing fitness (ln)” value was -1.17 ± 0.14 (30 °C) and -0.288 ± 0.17 (37 °C).
In the case of GGACAGCAAUAUUACGGGAA, the “self-splicing fitness (ln)” value is -2.7 ± 0.1 (30 °C) and -1.04 ± 0.083 (37 °C).
In the case of CUCCAGCAAUAUUACGGGCG, the “self-splicing fitness (ln)” value was -1.74 ± 0.092 (30 °C) and -1.2 ± 0.13 (37 °C).
For UGCCAGCAAUAUUACGAAGC, the “self-splicing fitness (ln)” value by setting is: (30 °C) -3.74 ± 0.22; (37 °C) -1.91 ± 0.18.
In the case of AGAUAGCAAUAUUACGGGGG, the “self-splicing fitness (ln)” value reads like this: (30 °C) -3.43 ± 0.28; (37 °C) -2.15 ± 0.29.
Take CAUAAGCAAUAUUACGUCUG: the “self-splicing fitness (ln)” value is -0.477 ± 0.065 (30 °C) and -0.45 ± 0.082 (37 °C).
With CGACAGCAAUAUUACGGAAC, the “self-splicing fitness (ln)” value was -3.4 ± 0.19 (30 °C) and -2.74 ± 0.23 (37 °C).
For the sequence GGUCAGCAAUAUUACGCAGG, the “self-splicing fitness (ln)” value (37 °C) is -3.55 ± 0.3.
As to GCUUAGCAAUAUUACGUCUG, the “self-splicing fitness (ln)” value was -2.33 ± 0.16 (30 °C) and -1 ± 0.15 (37 °C).
For CAACAGCAAUAUUACGACCC, the “self-splicing fitness (ln)” value runs as follows: (30 °C) -1.31 ± 0.13; (37 °C) -2.62 ± 0.33.
With AAAGAGCAAUAUUACGACAU, the “self-splicing fitness (ln)” value is -1.897 ± 0.015 (30 °C) and -1.26 ± 0.034 (37 °C).
On to UGGUAGCAAUAUUACGCAGG, for which the “self-splicing fitness (ln)” value was -2.77 ± 0.3 (30 °C) and -2.82 ± 0.48 (37 °C).
Regarding UGUUAGCAAUAUUACGCUUU, the “self-splicing fitness (ln)” value (30 °C) was -2.85 ± 0.2 and the “self-splicing fitness (ln)” value (37 °C) is -1.32 ± 0.14.
CCUAAGCAAUAUUACGUGGG: the “self-splicing fitness (ln)” value runs as follows: (30 °C) -3.51 ± 0.16; (37 °C) -2.5 ± 0.15.
Consider GCGUAGCAAUAUUACGUUUA, for which the “self-splicing fitness (ln)” value runs as follows: (30 °C) -2.16 ± 0.15; (37 °C) -2.13 ± 0.15.
For CUGCAGCAAUAUUACGCAGC, the “self-splicing fitness (ln)” value (30 °C) was -2.88 ± 0.32.
Turning to GGUGAGCAAUAUUACGUGCA, the “self-splicing fitness (ln)” value (30 °C) is -0.986 ± 0.12 and the “self-splicing fitness (ln)” value (37 °C) was -0.496 ± 0.14.
Taken in the same sequence, the figures for GAAGAGCAAUAUUACGUAGA were -4.54 ± 0.42 and -2.21 ± 0.25.
For CGGGAGCAAUAUUACGUCAG, the “self-splicing fitness (ln)” value runs as follows: (30 °C) -3.08 ± 0.19; (37 °C) -2.34 ± 0.24.
In the case of CUAUAGCAAUAUUACGAGGC, the “self-splicing fitness (ln)” value (30 °C) is -3.06 ± 0.35.
As for AGGGAGCAAUAUUACGGAUG, the “self-splicing fitness (ln)” value reads like this: (30 °C) -4 ± 0.33; (37 °C) -2.6 ± 0.31.
Taken in the same sequence, the figures for UUCGAGCAAUAUUACGCCGA were -2.65 ± 0.22 and -2.66 ± 0.33.
Turning to CGACAGCAAUAUUACGAUAA, the “self-splicing fitness (ln)” value reads like this: (30 °C) -3.74 ± 0.28; (37 °C) -1.27 ± 0.14.
As to GAGAAGCAAUAUUACGCAUC, the “self-splicing fitness (ln)” value by setting is: (30 °C) -3.12 ± 0.43; (37 °C) -2.6 ± 0.35.
On the same counts, the results for UCAGAGCAAUAUUACGAGUU are -2.22 ± 0.2 and -0.115 ± 0.27.
Take GGGCAGCAAUAUUACGUGGU: the “self-splicing fitness (ln)” value runs as follows: (30 °C) -2.88 ± 0.17; (37 °C) -1.58 ± 0.13.
In the case of AGAUAGCAAUAUUACGCCCU, the “self-splicing fitness (ln)” value is -0.337 ± 0.19 (30 °C) and 0.138 ± 0.21 (37 °C).
CAGUAGCAAUAUUACGAGUC: the “self-splicing fitness (ln)” value runs as follows: (30 °C) -4.27 ± 0.27; (37 °C) -2.36 ± 0.17.
As for UACUAGCAAUAUUACGGACC, under “37 °C”, the “self-splicing fitness (ln)” value is -1.13 ± 0.33.
With ACUCAGCAAUAUUACGAACA, the “self-splicing fitness (ln)” value was -1.16 ± 0.076 (30 °C) and -0.892 ± 0.09 (37 °C).
On the same counts, the results for CAAGAGCAAUAUUACGGCCA are -2.08 ± 0.38 and -2.62 ± 0.48.
As for CGGUAGCAAUAUUACGAAAG, the “self-splicing fitness (ln)” value (30 °C) is -0.203 ± 0.16 and the “self-splicing fitness (ln)” value (37 °C) is -0.493 ± 0.16.
GAAAAGCAAUAUUACGUAAU: the “self-splicing fitness (ln)” value by setting is: (30 °C) -1.78 ± 0.066; (37 °C) -1.47 ± 0.087.
Taken in the same sequence, the figures for UUUAAGCAAUAUUACGUACU were -1.14 ± 0.12 and -0.327 ± 0.14.
Taken in the same sequence, the figures for GGACAGCAAUAUUACGCUGA were -2.21 ± 0.16 and -1.51 ± 0.15.
On the same counts, the results for GACGAGCAAUAUUACGGUGC are -2.72 ± 0.28 and -1.47 ± 0.25.
On to GAAUAGCAAUAUUACGGACC, for which the “self-splicing fitness (ln)” value by setting is: (30 °C) -0.00208 ± 0.1; (37 °C) 0.0435 ± 0.18.
As to AGUUAGCAAUAUUACGCAUA, the “self-splicing fitness (ln)” value was -1.15 ± 0.19 (30 °C) and -0.764 ± 0.29 (37 °C).
For AUCAAGCAAUAUUACGUCCC, the “self-splicing fitness (ln)” value runs as follows: (30 °C) -0.841 ± 0.076; (37 °C) 0.17 ± 0.11.
Turning to UUUAAGCAAUAUUACGACAA, the “self-splicing fitness (ln)” value (30 °C) was -0.409 ± 0.098 and the “self-splicing fitness (ln)” value (37 °C) is -0.304 ± 0.12.
In the case of UGGAAGCAAUAUUACGCCCA, the “self-splicing fitness (ln)” value (37 °C) was -0.992 ± 0.45.
As to GUAAAGCAAUAUUACGUCAC, the “self-splicing fitness (ln)” value (30 °C) is -2.16 ± 0.096 and the “self-splicing fitness (ln)” value (37 °C) is -1.56 ± 0.12.
With GUCGAGCAAUAUUACGCUGC, where the note is “37 °C”, the “self-splicing fitness (ln)” value was -1.97 ± 0.48.
For CGUUAGCAAUAUUACGGAAG, the “self-splicing fitness (ln)” value by setting is: (30 °C) -1.02 ± 0.12; (37 °C) -0.829 ± 0.12.
AGCAAGCAAUAUUACGACUG: the “self-splicing fitness (ln)” value (30 °C) is -0.672 ± 0.077 and the “self-splicing fitness (ln)” value (37 °C) was -0.735 ± 0.1.
